{"source": "patent US11780912", "about": "(dated 2023)", "binders": {"B1": {"name": "H89/L16 (antibody, V domains shown)", "VH": "QVQLVESGGGLVQPGGSLRLSCAASGFTFSDYYLSWVRQAPGKGLEWVGLIRNKANGYTREYSASVKGRFTISRDDSKNSLYLQMSSLKTEDTAVYYCARENHRYDVELAYWGQGTLVTVSS", "VL": "DIQMTQSPSSLSASVGDRVTITCRASEIIYSYLAWYQQKPGKAPKLLIYNAKTHADGVPSRFSGSGSGTDFTFTISSLQPEDIATYYCQHHFGFPRTFGQGTKVEIKR"}, "B2": {"name": "H1009/L395 (antibody, V domains shown)", "VH": "B1 VH with A55D, G57Y, Y58H, R60P, Q84T, S87D", "VL": "B1 VL with N50K, Q89K"}, "B3": {"name": "Hr9/L16 (antibody, V domains shown)", "VH": "B1 VH with H103Y", "VL": "B1 VL"}, "B4": {"name": "H89/L118 (antibody, V domains shown)", "VH": "B1 VH", "VL": "B1 VL with N50H, Q89K"}}, "key": {"human IL-8 [1]": {"biological_target": "human IL-8 (human)", "sequence (chain, as listed by the source)": "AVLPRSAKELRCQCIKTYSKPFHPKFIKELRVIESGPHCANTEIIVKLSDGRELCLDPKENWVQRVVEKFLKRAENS", "test": "SPR, pH 7.4, 37C"}, "human IL-8 [2]": {"biological_target": "human IL-8 (human)", "test": "SPR, pH 5.8, 37C"}, "human IL-8 [3]": {"biological_target": "human IL-8 (human)", "test": "SPR, pH 7.4"}, "human IL-8 [4]": {"biological_target": "human IL-8 (human)", "test": "SPR, pH 5.8"}, "human IL-8 [5]": {"biological_target": "human IL-8 (human)", "test": "SPR, pH 7.4", "remark": "listed apart in the source"}, "human IL-8 [6]": {"biological_target": "human IL-8 (human)", "test": "SPR, pH 5.8", "remark": "listed apart in the source"}, "human IL-8 [7]": {"biological_target": "human IL-8 (human)", "test": "SPR, pH 5.8, 37C", "remark": "listed apart in the source"}}, "note": "Where a chain is given by its changes, count along the chain named.", "data": [{"binder": "B1", "values": [{"measurement": "Kd", "setting": "human IL-8 [1]", "value": 0.699, "unit": "nM"}, {"measurement": "Kd", "setting": "human IL-8 [2]", "value": 35.1, "unit": "nM"}]}, {"binder": "B2", "values": [{"measurement": "Kd", "setting": "human IL-8 [3]", "value": 0.071, "unit": "nM"}, {"measurement": "Kd", "setting": "human IL-8 [4]", "value": 87, "unit": "nM"}]}, {"binder": "B3", "values": [{"measurement": "Kd", "setting": "human IL-8 [1]", "value": 0.108, "unit": "nM"}, {"measurement": "Kd", "setting": "human IL-8 [2]", "value": 5.04, "unit": "nM"}]}, {"binder": "B4", "values": [{"measurement": "Kd", "setting": "human IL-8 [3]", "value": 0.17, "unit": "nM"}, {"measurement": "Kd", "setting": "human IL-8 [5]", "value": 0.172, "unit": "nM"}, {"measurement": "Kd", "setting": "human IL-8 [4]", "value": 49, "unit": "nM"}, {"measurement": "Kd", "setting": "human IL-8 [6]", "value": 48.8, "unit": "nM"}, {"measurement": "Kd", "setting": "human IL-8 [7]", "value": 31.8, "unit": "nM"}, {"measurement": "Kd", "setting": "human IL-8 [2]", "value": 21.5, "unit": "nM"}]}]}
